{
  "source": "paper PMC3565344",
  "about": "“Gamma-Aminobutyric Acid Production Using Immobilized Glutamate Decarboxylase Followed by Downstream Processing with Cation Exchange Chromatography” (International Journal of Molecular Sciences, 2013)",
  "target": "the molecule itself",
  "test": "SEC; size exclusion HPLC on TSKgel G3000SW; 20 uL purified GAD injected; isocratic elution at 1 mL/min for 30 min; 0.1 M sodium sulfate in 0.1 M phosphate buffer, pH 6.8; mix of monomer, dimer and tetramer",
  "note": "Values joined by “and” are separate entries in the source; they are usually repeats but may differ in a detail not shown here. Equal entries are not always repeated.",
  "data": [
    {"protein": "Escherichia coli glutamate decarboxylase fused to six histidine at its C-terminus (enzyme, E. coli, UniProt P69910 1-466, looked up, glutamate decarboxylase (GAD, EC 4.1.1.15) of E. coli, gene amplified from genomic DNA (GenBank M84025); The reverse primer puts an XhoI site (CTCGAG, would encode Leu-Glu) between the last GAD codon and the six histidines; this is my reading of the primer; also called GAD; EGAD; source: E. coli BL21 (DE3), purified (HisTrap HP, buffer exchange on Sephadex G-25); not shown: His6, C-terminal, kept) MDKKQVTDLRSELLDSRFGAKSISTIAESKRFPLHEMRDDVAFQIINDELYLDGNARQNLATFCQTWDDENVHKLMDLSINKNWIDKEEYPQSAAIDLRCVNMVADLWHAPAPKNGQAVGTNTIGSSEACMLGGMAMKWRWRKRMEAAGKPTDKPNLVCGPVQICWHKFARYWDVELREIPMRPGQLFMDPKRMIEACDENTIGVVPTFGVTYTGNYEFPQPLHDALDKFQADTGIDIDMHIDAASGGFLAPFVAPDIVWDFRLPRVKSISASGHKFGLAPLGCGWVIWRDEEALPQELVFNVDYLGGQIGTFAINFSRPAGQVIAQYYEFLRLGREGYTKVQNASYQVAAYLADEIAKLGPYEFICTGRPDEGIPAVCFKLKDGEDPGYTLYDLSERLRLRGWQVPAFTLGGEATDIVVMRIMCRRGFEMDFAELLLEDYKASLKYLSDHPKLQGIAQQNSFKHT", "values": [
      {"measurement": "stoichiometry N", "value": "2 and 4"}
    ]}
  ]
}
